The text below walks through data of patent publication US11202837B2, “Biological materials and uses thereof” (Antikor Biopharma Limited, priority 2014, dated 2021).

Where two headings read alike, the source gives them in different places. Where a SMILES comes first, the peptide text is derived from it. [ ]: non-standard residue; d: D form. The star is where a group is joined. ξ: configuration not given here. Dolaproine = CO[C@@H]([C@@H]1CCCN1)[C@@H](C)C(=O)O; Dil = CC[C@H](C)[C@H](NC)[C@@H](CC(=O)O)OC; NMe2Val = CC(C)[C@@H](C(=O)*)N(C)C; ξNMe2Val = CC(C)C(C(=O)*)N(C)C; NMeV = CN[CH](C(=O)O)C(C)C; Ava = NCCCCC(=O)O A value given as a limit tells only on which side of the number the result lay.

The IC50 is the concentration that gives 50% inhibition.

One experiment concerns SKBr3 cells. The experiment is described as follows: Cell killing assay (MTS), SKBr3 cells. The class given is cell-based, human. On the procedure:
(§1) SKBr3, human breast cancer cell line, high HER2 expression levels, up to 1,000,000 receptors per cell [Lazar G A, et al Proc Natl Acad Sci USA. […] When confluency was 70-80%, cells were washed with PBS (2×10 ml) and incubated with trypsin for 5-7 min. Complete media was added and the cells were resuspended by pipetting. The cells were recovered by centrifugation (2 min, 2000 rpm), the supernatant was discarded, and the cells were resuspended in complete DMEM (5 ml). The cells were then counted using a haemocytometer and diluted accordingly. They were plated at 4500 cells/well (200 μl) using attachment factor and incubated overnight at 37° C., 5% CO2 in a humidified atmosphere. U87 is a non-HER2 expressing glioblastoma cell line and was grown in a similar way, plated at 1000 cells/well.
[…] Cell viability was measured using the Promega Aqueous Cell-titre-96™ aqueous one solution cell proliferation kit according to manufacturer's instructions. Briefly, the media was removed and 100 μl of complete phenol red free media, pre-combined with MTS reagent, was added to the cells (20 μl of reagent per 100 μl of media). The plates were read on an ELISA plate reader at 490 nm after a 2 hr incubation in the dark (5% CO2, 37° C.).
(§2) The data (absorption units) were converted to % cell survival by using the untreated controls as the 100% cell survival and the Triton X-100 controls as the 100% cell death. The average absorption value for the latter was subtracted from all the rest of the data in order to get a suitable baseline. The averages were converted to survival and standard error values were obtained for each n value (as a % cell survival). […] Experiments were repeated at least 3 times for each compound tested and a set or an average of the data was plotted and fitted to obtain a dose response curve.
(§3) The cells were recovered by centrifugation (2 min, 2000 rpm), the supernatant was discarded, and the cells were resuspended in complete McCoy's 5A (5 ml). The cells were then counted using a haemocytometer and diluted accordingly. They were plated at 5000 cells/well (200 μl) using attachment factor and incubated overnight at 37° C., 5% CO2 in a humidified atmosphere. U87 is a non-HER2 expressing glioblastoma cell line [Zitron I M et al (2013) BMC Cancer 13:83] and was grown in a similar way, plated at 1000 cells/well (using DMEM media). BT474 is a HER2 expressing breast cancer cell line [Brockhoff G et al (2007) Cell Prolif 40:488-507] and was grown in a similar way, plated at 7500 cells/well (using RPMI media). NCI-N87 is a HER2 expressing gastric cancer cell line [Yamashita-Kashima Y et al (2013) Oncol. Rep 30:1087-93] and was grown in a similar way, plated at 7500 cells/well (using RPMI media).
[…] Cell viability was measured using the Promega Aqueous Cell-titre-96™ aqueous one solution cell proliferation kit (MTS reagent) according to manufacturer's instructions. Briefly, the media was removed and 100 μl of complete phenol red free media, pre-combined with MTS reagent, was added to the cells (20 μl of reagent per 100 μl of media). The plates were read on an ELISA plate reader at 490 nm after a 2 hr incubation in the dark (5% CO2, 37° C.).
(§4) The data (absorption units) were converted to % cell survival by using the untreated controls as the 100% cell survival and the Triton X-100 controls as the 100% cell death. The average absorption value for the latter was subtracted from all the rest of the data in order to get a suitable baseline. The averages were converted to survival and standard error values were obtained for each n value (as a % cell survival).

The next experiment has as its system U87 cells. The experiment is described as follows: Cell killing assay (MTS), U87 cells. The class given is cell-based. As to the method: as §1
The cells were exposed to the various ADCs diluted in complete media for 96 hours at 37° C., 5% CO2 in a humidified atmosphere. Cell viability was measured using the Promega Aqueous Cell-titre-96™ aqueous one solution cell proliferation kit according to manufacturer's instructions. Briefly, the media was removed and 100 μl of complete phenol red free media, pre-combined with MTS reagent, was added to the cells (20 μl of reagent per 100 μl of media). The plates were read on an ELISA plate reader at 490 nm after a 2 hr incubation in the dark (5% CO2, 37° C.).
as §2, §3
(§5) The cells were exposed to the various ADCs diluted in complete media for 96 hours at 37° C., 5% CO2 in a humidified atmosphere. Cell viability was measured using the Promega Aqueous Cell-titre-96™ aqueous one solution cell proliferation kit (MTS reagent) according to manufacturer's instructions. Briefly, the media was removed and 100 μl of complete phenol red free media, pre-combined with MTS reagent, was added to the cells (20 μl of reagent per 100 μl of media). The plates were read on an ELISA plate reader at 490 nm after a 2 hr incubation in the dark (5% CO2, 37° C.).
as §4

The next experiment has as its system BT474 cells. The experiment is described as follows: Cell killing assay (MTS), BT474 cells. The format is cell-based, human. On the procedure:
as §3, §5
The data (absorption units) were converted to % cell survival by using the untreated controls as the 100% cell survival and the Triton X-100 controls as the 100% cell death. The average absorption value for the latter was subtracted from all the rest of the data in order to get a suitable baseline. The averages were converted to survival and standard error values were obtained for each n value (as a % cell survival). […] Experiments were repeated at least 3 times for each compound tested and a set or an average of the data was plotted and fitted to obtain a dose-response curve.

The mark [1] stands for this setting: SKBr3 Cells (HER2 +++), 96 hours, Table 50.
The mark [2] stands for this setting: U87 Cells (HER2−), 96 hours, Table 50.
[3] abbreviates: U87 Cells (HER2−), 96 hours, Table 50, read-out: IC50.

Turning to `CC(C)C(NC(=O)C(C(C)C)N(C)C)C(=O)N(C)C(C(=O)N1CCCC1C(=O)N1CCCC1C(=O)NCCCCC(=O)O)C(C)C` (centres unmarked) [Free P5C5 (acid) drug, P5C5] (ξNMe2Val-V[NMeV]PP[Ava]-OH; configuration not given here), the IC50 in the experiment with SKBr3 cells (Homo sapiens, SK-BR-3, 96 h, read-out: IC50 nM SKBr3 Cells (HER2+++)) came to 2200 ± 400 nM; with U87 cells (Homo sapiens, U-87 MG, 96 h, read-out: IC50 nM U87 Cells (HER2−)) it was 7300 ± 900 nM.

As for `CC[C@H](C)[C@@H]([C@@H](CC(=O)N1CCC[C@H]1[C@H](OC)[C@@H](C)C(=O)N[C@@H](Cc1ccccc1)C(=O)O)OC)N(C)C(=O)[C@@H](NC(=O)[C@H](C(C)C)N(C)C)C(C)C` [Free drug Auristatin F] (NMe2Val-V[Dil][Dolaproine]F-OH), the IC50 was over 5.5 nM in the experiment with SKBr3 cells (Homo sapiens, SK-BR-3, 96 h, read-out: IC50 pM); over 12.5 nM with U87 cells (Homo sapiens, U-87 MG, 96 h, read-out: IC50 pM); over 2500 pM with BT474 cells (Homo sapiens, BT-474, 96 h, read-out: IC50 pM).

In the case of `COc1cc2cc(c1Cl)N(C)C(=O)C[C@H](OC(=O)[C@H](C)N(C)C(=O)CCS)[C@]1(C)O[C@H]1[C@H](C)[C@@H]1C[C@@](O)(NC(=O)O1)[C@H](OC)/C=C/C=C(\C)C2` [Free drug DM1], the IC50 stood at 47.6 nM in the experiment with SKBr3 cells (Homo sapiens, SK-BR-3, 96 h, read-out: IC50 nM) and 50.7 nM in the experiment on U87 cells (Homo sapiens, U-87 MG, 96 h, read-out: IC50 nM).

B1: scFv (TCT1067)-MMAF DAR 8.7 (conjugate)
scFv: SGSGGSGQVQLVQSGAEVKKPGESLKISCKGSGYSFTSYWIAWVRQMPGKGLEYMGLIYPGDSDTKYSPSFQGQVTISVDKSVSTAYLQWSSLKPSDSAVYFCARHDVGYCTDRTCAAWPEWLGVWGQGTLVTVSSGGGGSGGGGSGGGGSQSVLTQPPSVSAAPGQKVTISCSGSSSNIGNNYVSWYQQLPGTAPKLLIYGHTNRPAGVPDRFSGSKSGTSASLAISGFRSEDEADYYCASWDYTLSGWVFGGGTKLTVLMASMTGGQQMG
As to B1, the “IC50 μg/ml” value with SKBr3 cells (SKBr3 Cells (HER2+++), 96 hours, Table 47) worked out at 0.00091 µg/mL; with BT474 cells (BT474 Cells (HER2++), 96 hours, Table 47), 0.001 µg/mL. Moreover, the IC50 in the experiment on SKBr3 cells (SKBr3 Cells (HER2+++), 96 hours, Table 47, read-out: IC50) worked out at 0.0325 nM; in the experiment with BT474 cells (BT474 Cells (HER2++), 96 hours, Table 47, read-out: IC50), 35.7 pM.

B2: scFv (TCT1067)-P5C5 DAR 12.5 (conjugate)
scFv: SGSGGSGQVQLVQSGAEVKKPGESLKISCKGSGYSFTSYWIAWVRQMPGKGLEYMGLIYPGDSDTKYSPSFQGQVTISVDKSVSTAYLQWSSLKPSDSAVYFCARHDVGYCTDRTCAAWPEWLGVWGQGTLVTVSSGGGGSGGGGSGGGGSQSVLTQPPSVSAAPGQKVTISCSGSSSNIGNNYVSWYQQLPGTAPKLLIYGHTNRPAGVPDRFSGSKSGTSASLAISGFRSEDEADYYCASWDYTLSGWVFGGGTKLTVLMASMTGGQQMG
For B2, the “IC50 μg/ml” value in the experiment with SKBr3 cells (SKBr3 Cells (HER2+++), 96 hours, Table 48) was 0.04 µg/mL; in the experiment with BT474 cells (BT474 Cells (HER2++), 96 hours, Table 48) it was 0.3 µg/mL. Also, the IC50 in the experiment with SKBr3 cells (SKBr3 Cells (HER2+++), 96 hours, Table 48, read-out: IC50) came out at 1.42 nM; in the experiment on BT474 cells (BT474 Cells (HER2++), 96 hours, Table 48, read-out: IC50) it was 10700 pM.

B3: scFv (TCT1067)-DM1 DAR 5.5 (conjugate)
scFv: SGSGGSGQVQLVQSGAEVKKPGESLKISCKGSGYSFTSYWIAWVRQMPGKGLEYMGLIYPGDSDTKYSPSFQGQVTISVDKSVSTAYLQWSSLKPSDSAVYFCARHDVGYCTDRTCAAWPEWLGVWGQGTLVTVSSGGGGSGGGGSGGGGSQSVLTQPPSVSAAPGQKVTISCSGSSSNIGNNYVSWYQQLPGTAPKLLIYGHTNRPAGVPDRFSGSKSGTSASLAISGFRSEDEADYYCASWDYTLSGWVFGGGTKLTVLMASMTGGQQMG
Take B3: the “IC50 μg/ml” value in the experiment on SKBr3 cells (setting [1]) stood at 0.0078 µg/mL; with U87 cells (setting [2]), 0.419 µg/mL. Moreover, the IC50 in the experiment on U87 cells (setting [3]) came out at 14.9 nM.

B4: scFv (TCT1067)-DM1 DAR 3.5 (conjugate)
scFv: SGSGGSGQVQLVQSGAEVKKPGESLKISCKGSGYSFTSYWIAWVRQMPGKGLEYMGLIYPGDSDTKYSPSFQGQVTISVDKSVSTAYLQWSSLKPSDSAVYFCARHDVGYCTDRTCAAWPEWLGVWGQGTLVTVSSGGGGSGGGGSGGGGSQSVLTQPPSVSAAPGQKVTISCSGSSSNIGNNYVSWYQQLPGTAPKLLIYGHTNRPAGVPDRFSGSKSGTSASLAISGFRSEDEADYYCASWDYTLSGWVFGGGTKLTVLMASMTGGQQMG
As for B4, the “IC50 μg/ml” value was determined as 0.0417 µg/mL with SKBr3 cells (setting [1]) and 0.641 µg/mL in the experiment on U87 cells (setting [2]). For the same molecule, the IC50 is 1.49 nM with SKBr3 cells (SKBr3 Cells (HER2 +++), 96 hours, Table 50, read-out: IC50) and 22.9 nM in the experiment with U87 cells (setting [3]).

B5: scFv (TCT)-P5C5, DAR = 12 (conjugate)
scFv: SGSGGSGQVQLVQSGAEVKKPGESLKISCKGSGYSFTSYWIAWVRQMPGKGLEYMGLIYPGDSDTKYSPSFQGQVTISVDKSVSTAYLQWSSLKPSDSAVYFCARHDVGYCSSSNCAAWPEYFQHWGQGTLVTVSSGGGGSGGGGSGGGGSQSVLTQPPSVSAAPGQKVTISCSGSSSNIGNNYVSWYQQLPGTAPKLLIYGHTNRPAGVPDRFSGSKSGTSASLAISGFRSEDEADYYCAAWDDSLSGWVFGGGTKLTVLMASMTGGQQMG
On to B5, for which, in the experiment with SKBr3 cells (96 hours exposure), the “IC50 μg/ml SKBr3 Cells (HER2+++)” value is 5.01 ± 1.9 µg/mL. Further, the IC50 in the experiment with SKBr3 cells (96 hours exposure, read-out: IC50 nM SKBr3 Cells (HER2+++)) stood at 179 ± 68 nM; in the experiment with U87 cells (96 hours exposure, read-out: IC50 nM U87 Cells (HER2−)), 3570 nM. In addition, the “IC50 μg/ml U87 Cells (HER2−)” value in the experiment on U87 cells (96 hours exposure) worked out at 100 µg/mL.
